Measured values: patent publication US20220387487A1, “COMPOSITIONS AND METHODS FOR TREATMENT OF CANCER” (Aleta Biotherapeutics Inc., priority 2019, published 2022)

Each molecule was assayed on FMC63 (assay: CD19 variant binding to anti-CD19 antibody FMC63 (score)). Conditions: Table 1B, CD19 triple mutants.
FMC63, sequence (as listed by the source): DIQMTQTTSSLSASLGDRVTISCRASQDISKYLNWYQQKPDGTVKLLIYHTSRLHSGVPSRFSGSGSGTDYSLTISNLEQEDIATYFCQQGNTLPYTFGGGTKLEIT
FMC63, sequence (as listed by the source): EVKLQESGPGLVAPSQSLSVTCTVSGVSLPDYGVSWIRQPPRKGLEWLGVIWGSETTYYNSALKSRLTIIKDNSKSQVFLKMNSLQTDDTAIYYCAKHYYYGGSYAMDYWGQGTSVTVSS

Molecule	FMC63 Binding Score
W62T/F64V/F66R: CD19 variant (protein) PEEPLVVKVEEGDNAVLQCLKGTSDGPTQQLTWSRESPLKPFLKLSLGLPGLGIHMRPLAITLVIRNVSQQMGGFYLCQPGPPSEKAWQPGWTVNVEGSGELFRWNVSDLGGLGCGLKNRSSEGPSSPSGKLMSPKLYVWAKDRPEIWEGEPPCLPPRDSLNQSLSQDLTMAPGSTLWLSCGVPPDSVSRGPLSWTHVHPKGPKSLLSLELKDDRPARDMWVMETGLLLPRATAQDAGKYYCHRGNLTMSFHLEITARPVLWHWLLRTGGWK	12.2 ± 2.1
W62W/F64T/F66A: CD19 variant (protein) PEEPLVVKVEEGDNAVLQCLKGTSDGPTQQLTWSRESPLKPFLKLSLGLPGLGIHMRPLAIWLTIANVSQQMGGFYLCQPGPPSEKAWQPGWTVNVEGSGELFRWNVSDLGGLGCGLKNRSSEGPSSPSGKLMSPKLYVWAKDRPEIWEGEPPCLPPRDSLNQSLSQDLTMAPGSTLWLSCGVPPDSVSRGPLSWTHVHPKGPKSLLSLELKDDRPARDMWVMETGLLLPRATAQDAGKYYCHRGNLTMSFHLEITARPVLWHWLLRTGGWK	13.9 ± 4.
E224G/G226G/L228I: CD19 variant (protein) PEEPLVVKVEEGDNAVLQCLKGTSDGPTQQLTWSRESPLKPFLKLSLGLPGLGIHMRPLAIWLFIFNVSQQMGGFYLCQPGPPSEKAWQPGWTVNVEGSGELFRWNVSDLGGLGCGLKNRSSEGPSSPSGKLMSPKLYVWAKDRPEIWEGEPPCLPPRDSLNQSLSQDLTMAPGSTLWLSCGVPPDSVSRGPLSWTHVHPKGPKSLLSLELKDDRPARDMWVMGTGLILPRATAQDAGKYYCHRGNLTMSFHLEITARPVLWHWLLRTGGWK	11.2 ± 1.2
E224G/G226R/L228I: CD19 variant (protein) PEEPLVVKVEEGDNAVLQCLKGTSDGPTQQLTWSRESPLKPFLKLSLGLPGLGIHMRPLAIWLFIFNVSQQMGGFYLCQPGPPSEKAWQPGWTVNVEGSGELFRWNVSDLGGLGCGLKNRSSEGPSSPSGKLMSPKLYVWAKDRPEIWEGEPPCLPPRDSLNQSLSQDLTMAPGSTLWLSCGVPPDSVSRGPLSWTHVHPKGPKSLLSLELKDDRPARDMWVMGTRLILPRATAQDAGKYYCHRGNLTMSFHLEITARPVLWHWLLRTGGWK	12. ± 2.
W62D/F64V/F66S: CD19 variant (protein) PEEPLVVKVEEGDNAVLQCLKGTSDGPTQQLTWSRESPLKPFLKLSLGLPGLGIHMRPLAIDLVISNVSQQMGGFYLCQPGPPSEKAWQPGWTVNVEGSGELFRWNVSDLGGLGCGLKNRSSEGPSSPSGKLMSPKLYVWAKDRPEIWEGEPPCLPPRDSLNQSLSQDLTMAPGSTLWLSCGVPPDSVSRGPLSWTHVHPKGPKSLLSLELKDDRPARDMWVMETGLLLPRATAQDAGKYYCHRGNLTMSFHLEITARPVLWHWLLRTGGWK	13.3 ± 3.2
E224G/G226S/L228V: CD19 variant (protein) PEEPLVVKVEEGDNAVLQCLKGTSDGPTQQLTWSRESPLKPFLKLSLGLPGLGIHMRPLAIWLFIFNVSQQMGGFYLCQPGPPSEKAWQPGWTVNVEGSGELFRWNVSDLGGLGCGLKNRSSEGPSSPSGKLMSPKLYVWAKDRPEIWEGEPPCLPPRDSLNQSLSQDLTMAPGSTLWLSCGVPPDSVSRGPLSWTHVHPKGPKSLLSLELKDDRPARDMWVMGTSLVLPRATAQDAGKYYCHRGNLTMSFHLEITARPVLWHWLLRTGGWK	11.2 ± 1.1
W62S/F64V/F66R: CD19 variant (protein) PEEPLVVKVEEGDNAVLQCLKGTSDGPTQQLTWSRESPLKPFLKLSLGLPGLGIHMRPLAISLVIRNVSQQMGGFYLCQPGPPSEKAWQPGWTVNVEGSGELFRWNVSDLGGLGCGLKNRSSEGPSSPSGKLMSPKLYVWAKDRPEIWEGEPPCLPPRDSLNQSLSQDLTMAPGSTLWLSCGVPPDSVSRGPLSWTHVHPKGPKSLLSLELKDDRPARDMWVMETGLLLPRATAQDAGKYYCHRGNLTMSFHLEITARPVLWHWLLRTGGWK	11.8 ± 1.7
W62D/F64A/F66S: CD19 variant (protein) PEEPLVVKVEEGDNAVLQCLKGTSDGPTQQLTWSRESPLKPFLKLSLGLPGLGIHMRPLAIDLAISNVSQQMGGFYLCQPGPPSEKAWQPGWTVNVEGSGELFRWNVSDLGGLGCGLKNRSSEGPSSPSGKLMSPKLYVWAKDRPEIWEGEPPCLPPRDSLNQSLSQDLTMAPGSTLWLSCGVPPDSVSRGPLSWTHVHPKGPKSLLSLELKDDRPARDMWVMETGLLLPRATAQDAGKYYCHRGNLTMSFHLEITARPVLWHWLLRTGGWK	15.5 ± 5.6
W62G/F64V/F66R: CD19 variant (protein) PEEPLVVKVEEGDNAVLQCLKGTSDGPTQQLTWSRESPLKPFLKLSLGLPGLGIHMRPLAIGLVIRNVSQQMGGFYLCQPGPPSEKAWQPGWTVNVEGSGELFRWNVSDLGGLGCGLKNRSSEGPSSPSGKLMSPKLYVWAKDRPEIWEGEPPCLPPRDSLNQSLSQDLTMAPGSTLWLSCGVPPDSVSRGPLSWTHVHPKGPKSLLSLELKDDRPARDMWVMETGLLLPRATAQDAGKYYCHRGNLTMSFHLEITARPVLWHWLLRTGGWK	14.1 ± 1.9
W62G/F64V/F66K: CD19 variant (protein) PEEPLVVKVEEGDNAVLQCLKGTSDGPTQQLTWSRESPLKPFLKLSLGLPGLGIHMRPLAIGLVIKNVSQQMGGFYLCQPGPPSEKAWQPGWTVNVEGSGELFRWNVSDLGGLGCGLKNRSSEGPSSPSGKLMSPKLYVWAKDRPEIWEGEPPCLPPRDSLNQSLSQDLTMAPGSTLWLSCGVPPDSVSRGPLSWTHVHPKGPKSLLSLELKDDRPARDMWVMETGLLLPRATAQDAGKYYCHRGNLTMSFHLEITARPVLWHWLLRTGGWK	12.3 ± 2.3
L59N/I61I/L63I: CD19 variant (protein) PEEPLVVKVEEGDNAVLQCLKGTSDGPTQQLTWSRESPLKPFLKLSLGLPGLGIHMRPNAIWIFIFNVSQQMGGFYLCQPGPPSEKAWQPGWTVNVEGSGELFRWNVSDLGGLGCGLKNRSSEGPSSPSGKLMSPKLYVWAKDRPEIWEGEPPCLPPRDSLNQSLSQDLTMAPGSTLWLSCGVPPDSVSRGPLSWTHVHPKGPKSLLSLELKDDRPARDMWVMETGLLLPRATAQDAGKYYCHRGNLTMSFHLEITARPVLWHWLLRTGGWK	15.6 ± 5.6
W62T/F64M/F66S: CD19 variant (protein) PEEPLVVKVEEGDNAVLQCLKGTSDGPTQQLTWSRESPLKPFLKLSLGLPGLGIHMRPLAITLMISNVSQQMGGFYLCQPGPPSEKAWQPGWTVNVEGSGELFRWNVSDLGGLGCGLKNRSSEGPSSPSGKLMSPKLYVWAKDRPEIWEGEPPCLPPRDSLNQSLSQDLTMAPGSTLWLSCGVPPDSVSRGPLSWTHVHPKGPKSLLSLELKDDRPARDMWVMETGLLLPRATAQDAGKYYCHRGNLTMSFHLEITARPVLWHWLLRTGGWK	15.7 ± 5.6
W62S/F64F/F66N: CD19 variant (protein) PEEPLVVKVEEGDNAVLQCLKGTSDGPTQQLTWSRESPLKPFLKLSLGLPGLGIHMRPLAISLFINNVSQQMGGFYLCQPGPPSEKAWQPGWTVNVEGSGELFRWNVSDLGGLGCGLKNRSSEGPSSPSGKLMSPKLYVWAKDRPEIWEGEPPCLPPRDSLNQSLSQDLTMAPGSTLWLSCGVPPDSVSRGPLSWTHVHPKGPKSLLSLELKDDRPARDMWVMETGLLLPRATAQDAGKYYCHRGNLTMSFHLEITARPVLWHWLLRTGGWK	15.6 ± 5.6
W62N/F64L/F66P: CD19 variant (protein) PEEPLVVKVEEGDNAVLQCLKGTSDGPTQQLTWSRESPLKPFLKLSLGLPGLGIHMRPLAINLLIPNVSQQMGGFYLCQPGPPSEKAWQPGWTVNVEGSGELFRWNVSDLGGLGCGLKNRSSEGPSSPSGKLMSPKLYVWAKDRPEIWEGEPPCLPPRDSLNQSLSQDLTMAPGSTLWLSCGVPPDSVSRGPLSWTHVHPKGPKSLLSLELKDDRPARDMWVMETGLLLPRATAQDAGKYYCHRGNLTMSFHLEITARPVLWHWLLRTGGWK	15.6 ± 5.6
W62H/F64V/F66S: CD19 variant (protein) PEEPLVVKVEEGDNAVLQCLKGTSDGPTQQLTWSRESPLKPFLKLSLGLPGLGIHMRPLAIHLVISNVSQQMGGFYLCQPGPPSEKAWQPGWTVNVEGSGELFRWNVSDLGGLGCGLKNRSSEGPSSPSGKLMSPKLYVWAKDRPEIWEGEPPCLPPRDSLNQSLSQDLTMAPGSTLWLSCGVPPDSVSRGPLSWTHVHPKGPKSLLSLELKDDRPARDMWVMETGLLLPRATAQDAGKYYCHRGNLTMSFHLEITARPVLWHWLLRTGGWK	14. ± 4.
W62S/F64V/F66S: CD19 variant (protein) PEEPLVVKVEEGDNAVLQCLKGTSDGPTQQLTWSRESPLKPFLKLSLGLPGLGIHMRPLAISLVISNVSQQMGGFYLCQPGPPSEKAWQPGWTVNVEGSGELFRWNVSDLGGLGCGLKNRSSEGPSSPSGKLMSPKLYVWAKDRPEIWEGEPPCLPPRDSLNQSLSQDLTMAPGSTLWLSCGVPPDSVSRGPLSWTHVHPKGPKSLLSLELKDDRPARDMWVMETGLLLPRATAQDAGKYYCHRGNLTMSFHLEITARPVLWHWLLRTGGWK	15.4 ± 2.8
E224G/G226A/L228V: CD19 variant (protein) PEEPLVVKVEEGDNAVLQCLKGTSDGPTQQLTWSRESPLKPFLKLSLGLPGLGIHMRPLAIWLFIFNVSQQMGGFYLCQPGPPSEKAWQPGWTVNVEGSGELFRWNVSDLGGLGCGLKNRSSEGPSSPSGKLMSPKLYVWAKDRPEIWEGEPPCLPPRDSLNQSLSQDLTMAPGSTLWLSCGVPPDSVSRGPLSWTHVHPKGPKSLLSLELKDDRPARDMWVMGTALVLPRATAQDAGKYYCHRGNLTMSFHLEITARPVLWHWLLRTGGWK	10.8 ± .8
